From the supplement of paper PMC5998384

Legend:
HeLa Kyoto [1] = assay: melting temperature (median over replicates), in situ; higher = more thermally stable
HeLa Kyoto [2] = assay: solubility in G1/S (NP-40 vs SDS abundance) (log2 ratio); higher = more soluble; conditions: cell cycle stage: G1/S
HeLa Kyoto [3] = assay: solubility change mitosis vs G1/S (difference of NP-40 vs SDS log2 ratios) (log2 ratio difference); higher = more soluble in mitosis
HeLa Kyoto [4] = assay: thermal stability score vs G1/S (z-score of summed log2 fold changes over temperatures); higher = more thermally stable than in G1/S
[5] = cell cycle stage: early G1 (4.5 h after nocodazole release)
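Throughout, for melting temperature (median over replicates), in situ: HeLa Kyoto cells synchronized by double thymidine or nocodazole block, proteins quantified by TMT10plex mass spectrometry, three independent biological replicates.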
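Throughout, for solubility change mitosis vs G1/S (difference of NP-40 vs SDS log2 ratios): synchronized HeLa Kyoto cells (double thymidine block for G1/S, nocodazole release for mitosis), protein amounts in NP-40 versus SDS lysates quantified by mass spectrometry, three biological replicates.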
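Throughout, for solubility in G1/S (NP-40 vs SDS abundance): HeLa Kyoto cells arrested at G1/S by double thymidine block, proteins quantified by TMT10plex mass spectrometry in mild NP-40 versus SDS extracts, three biological replicates.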
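Throughout, for thermal stability score vs G1/S (z-score of summed log2 fold changes over temperatures): synchronized HeLa Kyoto cells, proteins quantified by TMT10plex mass spectrometry, three biological replicates, mitosis taken 0.5 h after nocodazole release, G1/S directly after double thymidine block.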

MCTP2, sequence (chain, as listed by the source): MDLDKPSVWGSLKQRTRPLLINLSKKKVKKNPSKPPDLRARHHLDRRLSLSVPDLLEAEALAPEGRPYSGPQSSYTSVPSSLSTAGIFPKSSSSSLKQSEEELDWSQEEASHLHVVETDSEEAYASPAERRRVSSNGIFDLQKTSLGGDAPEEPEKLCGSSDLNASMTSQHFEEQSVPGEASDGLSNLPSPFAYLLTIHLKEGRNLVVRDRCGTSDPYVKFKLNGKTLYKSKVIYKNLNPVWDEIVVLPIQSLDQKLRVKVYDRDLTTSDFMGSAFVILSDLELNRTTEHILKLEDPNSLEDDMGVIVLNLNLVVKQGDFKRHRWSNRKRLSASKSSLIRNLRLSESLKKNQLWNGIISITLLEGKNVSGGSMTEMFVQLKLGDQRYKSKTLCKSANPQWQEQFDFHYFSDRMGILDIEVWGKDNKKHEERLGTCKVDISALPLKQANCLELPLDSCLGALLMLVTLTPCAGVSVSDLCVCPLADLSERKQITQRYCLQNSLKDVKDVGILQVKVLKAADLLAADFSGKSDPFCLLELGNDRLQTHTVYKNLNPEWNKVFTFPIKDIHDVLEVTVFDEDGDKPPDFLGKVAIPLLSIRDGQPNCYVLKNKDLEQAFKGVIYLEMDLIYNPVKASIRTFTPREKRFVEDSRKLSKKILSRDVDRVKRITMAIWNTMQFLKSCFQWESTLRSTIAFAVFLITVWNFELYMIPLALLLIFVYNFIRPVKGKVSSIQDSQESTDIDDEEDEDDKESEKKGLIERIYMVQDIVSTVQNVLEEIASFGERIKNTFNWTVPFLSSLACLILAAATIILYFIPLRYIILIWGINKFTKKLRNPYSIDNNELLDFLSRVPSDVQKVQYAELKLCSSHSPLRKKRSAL

| Substance | melting temperature (HeLa Kyoto [1]; cell cycle stage: G1/S) | melting temperature (HeLa Kyoto [1]; cell cycle stage: mitosis) | solubility in G1/S (log2) (HeLa Kyoto [2]) | solubility change mitosis (log2) (HeLa Kyoto [3]) | thermal stability score (HeLa Kyoto [4]; [5]) | thermal stability score (HeLa Kyoto [4]; cell cycle stage: mitosis) |
| --- | --- | --- | --- | --- | --- | --- |
| MAVPGDAARVRDKPVHSGVSQAPTAGRDCHHRADPASPRDSGCRGCWGDLVLQPLRSSRKLSSALCAGSLSFLLALLVRLVRGEVGCDLEQCKEAAAAEEEEAAPGAEGGVFPGPRGGAPGGGARLSPWLQPSALLFSLLCAFFWMGLYLLRAGVRLPLAVALLAACCGGEALVQIGLGVGEDHLLSLPAAGVVLSCLAAATWLVLRLRLGVLMIALTSAVRTVSLISLERFKVAWRPYLAYLAGVLGILLARYVEQILPQSAEAAPREHLGSQLIAGTKEDIPVFKRRRRSSSVVSAEMSGCSSKSHRRTSLPCIPREQLMGHSEWDHKRGPRGSQSSGTSITVDIAVMGEAHGLITDLLADPSLPPNVCTSLRAVSNLLSTQLTFQAIHKPRVNPVTSLSENYTCSDSEESSEKDKLAIPKRLRRSLPPGLLRRVSSTWTTTTSATGLPTLEPAPVRRDRSTSIKLQEAPSSSPDSWNNPVMMTLTKSRSFTSSYAISAANHVKAKKQSRPGALAKISPLSSPCSSPLQGTPASSLVSKISAVQFPESADTTAKQSLGSHRALTYTQSAPDLSPQILTPPVICSSCGRPYSQGNPADEPLERSGVATRTPSRTDDTAQVTSDYETNNNSDSSDIVQNEDETECLREPLRKASACSTYAPETMMFLDKPILAPEPLVMDNLDSIMEQLNTWNFPIFDLVENIGRKCGRILSQVSYRLFEDMGLFEAFKIPIREFMNYFHALEIGYRDIPYHNRIHATDVLHAVWYLTTQPIPGLSTVINDHGSTSDSDSDSGFTHGHMGYVFSKTYNVTDDKYGCLSGNIPALELMALYVAAAMHDYDHPGRTNAFLVATSAPQAVLYNDRSVLENHHAAAAWNLFMSRPEYNFLINLDHVEFKHFRFLVIEAILATDLKKHFDFVAKFNGKVNDDVGIDWTNENDRLLVCQMCIKLADINGPAKCKELHLQWTDGIVNEFYEQGDEEASLGLPISPFMDRSAPQLANLQESFISHIVGPLCNSYDSAGLMPGKWVEDSDESGDTDDPEEEEEEAPAPNEEETCENNESPKKKTFKRRKIYCQITQHLLQNHKMWKKVIEEEQRLAGIENQSLDQTPQSHSSEQIQAIKEEEEEKGKPRGEEIPTQKPDQ [PDE3A] | 51.8 °C | 49.6 °C | 0.0669 | -0.179 | -2.5 | -4.37 |
| MAVTITLKTLQQQTFKIRMEPDETVKVLKEKIEAEKGRDAFPVAGQKLIYAGKILSDDVPIRDYRIDEKNFVVVMVTKTKAGQGTSAPPEASPTAAPESSTSFPPAPTSGMSHPPPAAREDKSPSEESAPTTSPESVSGSVPSSGSSGREEDAASTLVTGSEYETMLTEIMSMGYERERVVAALRASYNNPHRAVEYLLTGIPGSPEPEHGSVQESQVSEQPATEAAGENPLEFLRDQPQFQNMRQVIQQNPALLPALLQQLGQENPQLLQQISRHQEQFIQMLNEPPGELADISDVEGEVGAIGEEAPQMNYIQVTPQEKEAIERLKALGFPESLVIQAYFACEKNENLAANFLLSQNFDDE [RAD23A] | 56.3 °C | 55.5 °C | 0.0728 | 0.0994 | -1.83 | -1.48 |
| MAVVIRLQGLPIVAGTMDIRHFFSGLTIPDGGVHIVGGELGEAFIVFATDEDARLGMMRTGGTIKGSKVTLLLSSKTEMQNMIELSRRRFETANLDIPPANASRSGPPPSSGMSSRVNLPTTVSNFNNPSPSVVTATTSVHESNKNIQTFSTASVGTAPPNMGASFGSPTFSSTVPSTASPMNTVPPPPIPPIPAMPSLPPMPSIPPIPVPPPVPTLPPVPPVPPIPPVPSVPPMTPLPPMSGMPPLNPPPVAPLPAGMNGSGAPMNLNNNLNPMFLGPLNPVNPIQMNSQSSVKPLPINPDDLYVSVHGMPFSAMENDVRDFFHGLRVDAVHLLKDHVGRNNGNGLVKFLSPQDTFEALKRNRMLMIQRYVEVSPATERQWVAAGGHITFKQNMGPSGQTHPPPQTLPRSKSPSGQKRSRSRSPHEAGFCVYLKGLPFEAENKHVIDFFKKLDIVEDSIYIAYGPNGKATGEGFVEFRNEADYKAALCRHKQYMGNRFIQVHPITKKGMLEKIDMIRKRLQNFSYDQREMILNPEGDVNSAKVCAHITNIPFSITKMDVLQFLEGIPVDENAVHVLVDNNGQGLGQALVQFKNEDDARKSERLHRKKLNGREAFVHVVTLEDMREIEKNPPAQGKKGLKMPVPGNPAVPGMPNAGLPGVGLPSAGLPGAGLPSTGLPGSAITSAGLPGAGMPSAGIPSAGGEEHAFLTVGSKEANNGPPFNFPGNFGGSNAFGPPIPPPGLGGGAFGDARPGMPSVGNSGLPGLGLDVPGFGGGPNNLSGPSGFGGGPQNFGNGPGSLGGPPGFGSGPPGLGSAPGHLGGPPAFGPGPGPGPGPGPIHIGGPPGFASSSGKPGPTVIKVQNMPFTVSIDEILDFFYGYQVIPGSVCLKYNEKGMPTGEAMVAFESRDEATAAVIDLNDRPIGSRKVKLVLG [RBM12] | 48.7 °C | 49.2 °C | 0.344 | -0.147 | 1.03 | 4.25 |
| MAVVPASLSGQDVGSFAYLTIKDRIPQILTKVIDTLHRHKSEFFEKHGEEGVEAEKKAISLLSKLRNELQTDKPFIPLVEKFVDTDIWNQYLEYQQSLLNESDGKSRWFYSPWLLVECYMYRRIHEAIIQSPPIDYFDVFKESKEQNFYGSQESIIALCTHLQQLIRTIEDLDENQLKDEFFKLLQISLWGNKCDLSLSGGESSSQNTNVLNSLEDLKPFILLNDMEHLWSLLSNCKKTREKASATRVYIVLDNSGFELVTDLILADFLLSSELATEVHFYGKTIPWFVSDTTIHDFNWLIEQVKHSNHKWMSKCGADWEEYIKMGKWVYHNHIFWTLPHEYCAMPQVAPDLYAELQKAHLILFKGDLNYRKLTGDRKWEFSVPFHQALNGFHPAPLCTIRTLKAEIQVGLQPGQGEQLLASEPSWWTTGKYGIFQYDGPL [ARMT1] | 49.6 °C | 49 °C | 0.0146 | -0.15 | 1.02 | 1.91 |
| MAWRGWAQRGWGCGQAWGASVGGRSCEELTAVLTPPQLLGRRFNFFIQQKCGFRKAPRKVEPRRSDPGTSGEAYKRSALIPPVEETVFYPSPYPIRSLIKPLFFTVGFTGCAFGSAAIWQYESLKSRVQSYFDGIKADWLDSIRPQKEGDFRKEINKWWNNLSDGQRTVTGIIAANVLVFCLWRVPSLQRTMIRYFTSNPASKVLCSPMLLSTFSHFSLFHMAANMYVLWSFSSSIVNILGQEQFMAVYLSAGVISNFVSYVGKVATGRYGPSLGASGAIMTVLAAVCTKIPEGRLAIIFLPMFTFTAGNALKAIIAMDTAGMILGWKFFDHAAHLGGALFGIWYVTYGHELIWKNREPLVKIWHEIRTNGPKKGGGSK [PARL] | 54.9 °C | 55.8 °C | -0.0323 | -0.267 | -0.187 | -2.36 |
| MAYPGHPGAGGGYYPGGYGGAPGGPAFPGQTQDPLYGYFAAVAGQDGQIDADELQRCLTQSGIAGGYKPFNLETCRLMVSMLDRDMSGTMGFNEFKELWAVLNGWRQHFISFDTDRSGTVDPQELQKALTTMGFRLSPQAVNSIAKRYSTNGKITFDDYIACCVKLRALTDSFRRRDTAQQGVVNFPYDDFIQCVMSV [SRI] | 52.8 °C | 52.2 °C | 0.028 | 0.318 | -2.31 | -2.35 |
| MCAAQMPPLAHIFRGTFVHSTWTCPMEVLRDHLLGVSDSGKIVFLEEASQQEKLAKEWCFKPCEIRELSHHEFFMPGLVDTHIHASQYSFAGSSIDLPLLEWLTKYTFPAEHRFQNIDFAEEVYTRVVRRTLKNGTTTACYFATIHTDSSLLLADITDKFGQRAFVGKVCMDLNDTFPEYKETTEESIKETERFVSEMLQKNYSRVKPIVTPRFSLSCSETLMGELGNIAKTRDLHIQSHISENRDEVEAVKNLYPSYKNYTSVYDKNNLLTNKTVMAHGCYLSAEELNVFHERGASIAHCPNSNLSLSSGFLNVLEVLKHEVKIGLGTDVAGGYSYSMLDAIRRAVMVSNILLINKVNEKSLTLKEVFRLATLGGSQALGLDGEIGNFEVGKEFDAILINPKASDSPIDLFYGDFFGDISEAVIQKFLYLGDDRNIEEVYVGGKQVVPFSSSV [GDA] | 61.9 °C | 63.7 °C | 0.0143 | -0.0926 | -1.49 | -2.29 |
| MCDLRRPAAGGMMDLAYVCEWEKWSKSTHCPSVPLACAWSCRNLIAFTMDLRSDDQDLTRMIHILDTEHPWDLHSIPSEHHEAITCLEWDQSGSRLLSADADGQIKCWSMADHLANSWESSVGSLVEGDPIVALSWLHNGVKLALHVEKSGASSFGEKFSRVKFSPSLTLFGGKPMEGWIAVTVSGLVTVSLLKPSGQVLTSTESLCRLRGRVALADIAFTGGGNIVVATADGSSASPVQFYKVCVSVVSEKCRIDTEILPSLFMRCTTDLNRKDKFPAITHLKFLARDMSEQVLLCASSQTSSIVECWSLRKEGLPVNNIFQQISPVVGDKQPTILKWRILSATNDLDRVSAVALPKLPISLTNTDLKVASDTQFYPGLGLALAFHDGSVHIVHRLSLQTMAVFYSSAAPRPVDEPAMKRPRTAGPAVHLKAMQLSWTSLALVGIDSHGKLSVLRLSPSMGHPLEVGLALRHLLFLLEYCMVTGYDWWDILLHVQPSMVQSLVEKLHEEYTRQTAALQQVLSTRILAMKASLCKLSPCTVTRVCDYHTKLFLIAISSTLKSLLRPHFLNTPDKSPGDRLTEICTKITDVDIDKVMINLKTEEFVLDMNTLQALQQLLQWVGDFVLYLLASLPNQGSLLRPGHSFLRDGTSLGMLRELMVVIRIWGLLKPSCLPVYTATSDTQDSMSLLFRLLTKLWICCRDEGPASEPDEALVDECCLLPSQLLIPSLDWLPASDGLVSRLQPKQPLRLQFGRAPTLPGSAATLQLDGLARAPGQPKIDHLRRLHLGACPTEECKACTRCGCVTMLKSPNRTTAVKQWEQRWIKNCLAVEGRGPDACVTSRASEEAPAFVQLGPQSTHHSPRTPRSLDHLHPEDRP [MED16] | 52.2 °C | 52 °C | -0.121 | -0.185 | 0.307 | 0.64 |
| MCGNNMSTPLPAIVPAARKATAAVIFLHGLGDTGHGWAEAFAGIRSSHIKYICPHAPVRPVTLNMNVAMPSWFDIIGLSPDSQEDESGIKQAAENIKALIDQEVKNGIPSNRIILGGFSQGGALSLYTALTTQQKLAGVTALSCWLPLRASFPQGPIGGANRDISILQCHGDCDPLVPLMFGSLTVEKLKTLVNPANVTFKTYEGMMHSSCQQEMMDVKQFIDKLLPPID [LYPLA1] | 54.6 °C | 56.2 °C | 0.619 | 0.23 | 0.0704 | -0.796 |
| MCM3AP | 48.7 °C | 49.5 °C | -0.867 | 0.655 | -0.00305 | -0.291 |
| MCSLGLFPPPPPRGQVTLYEHNNELVTGSSYESPPPDFRGQWINLPVLQLTKDPLKTPGRLDHGTRTAFIHHREQVWKRCINIWRDVGLFGVLNEIANSEEEVFEWVKTASGWALALCRWASSLHGSLFPHLSLRSEDLIAEFAQVTNWSSCCLRVFAWHPHTNKFAVALLDDSVRVYNASSTIVPSLKHRLQRNVASLAWKPLSASVLAVACQSCILIWTLDPTSLSTRPSSGCAQVLSHPGHTPVTSLAWAPSGGRLLSASPVDAAIRVWDVSTETCVPLPWFRGGGVTNLLWSPDGSKILATTPSAVFRVWEAQMWTCERWPTLSGRCQTGCWSPDGSRLLFTVLGEPLIYSLSFPERCGEGKGCVGGAKSATIVADLSETTIQTPDGEERLGGEAHSMVWDPSGERLAVLMKGKPRVQDGKPVILLFRTRNSPVFELLPCGIIQGEPGAQPQLITFHPSFNKGALLSVGWSTGRIAHIPLYFVNAQFPRFSPVLGRAQEPPAGGGGSIHDLPLFTETSPTSAPWDPLPGPPPVLPHSPHSHL [AAAS] | 53.6 °C | 51 °C | -0.296 | 0.0315 | -4.87 | -7.02 |
| MCTP2 | 50.2 °C | 50.1 °C | -0.274 | -0.136 | 0.55 | 0.479 |
